Measured values reported in publication PMC5064014, “SUMOylated NKAP is essential for chromosome alignment by anchoring CENP-E to kinetochores” (Nature Communications, 2016).

B1: GST-NKAP deletion mutant aa 1–138 (domain or fragment, human, UniProt Q8N5F7 1-138, looked up)
chain: MAPVSGSRSPDREASGSGGRRRSSSKSPKPSKSARSPRGRRSRSHSCSRSGDRNGLTHQLGGLSQGSRNQSYRSRSRSRSRERPSAPRGIPFASASSSVYYGSYSRPYGSDKPWPSLLDKEREESLRQKRLSERERIG
notes: The text names the region; source: E. coli DH5α, purified (glutathione Sepharose 4B)
B2: GST-NKAP deletion mutant aa 139–276 (domain or fragment, human, UniProt Q8N5F7 139-276, looked up)
chain: ELGAPEVWGLSPKNPEPDSDEHTPVEDEEPKKSTTSASTSEEEKKKKSSRSKERSKKRRKKKSSKRKHKKYSEDSDSDSDSETDSSDEDNKRRAKKAKKKEKKKKHRSKKYKKKRSKKSRKESSDSSSKESQEEFLEN
notes: as for B1

Target: T1, human His-Bub3 full-length recombinant protein (human, UniProt O43684 1-328)
T1 construct: Bub3, human, full-length recombinant protein; also called Recombinant His-Bub3; source: bought: Abcam (ab139802)
T1 sequence (O43684 whole entry): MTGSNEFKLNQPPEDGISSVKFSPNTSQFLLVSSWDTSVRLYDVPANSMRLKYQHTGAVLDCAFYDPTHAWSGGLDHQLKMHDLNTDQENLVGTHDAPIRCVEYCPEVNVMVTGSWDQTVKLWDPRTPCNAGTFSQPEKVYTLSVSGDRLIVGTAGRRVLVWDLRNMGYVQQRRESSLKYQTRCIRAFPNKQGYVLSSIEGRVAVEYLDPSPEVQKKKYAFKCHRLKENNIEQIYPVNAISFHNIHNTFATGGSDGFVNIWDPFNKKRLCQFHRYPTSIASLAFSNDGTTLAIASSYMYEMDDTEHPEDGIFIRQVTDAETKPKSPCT
Experiment: pull-down; recombinant His-Bub3 incubated with GST, GST-NKAP and its deletion mutants; 50 mM Tris–HCl pH 7.5, 150 mM NaCl, 1 mM EDTA, 0.3 mM dithiothreitol, 0.1% NP-40; overnight at 4 °C; bound protein by immunoblot
Conditions: both partners purified

Row | binding result | Binder
1 | binds | B1
2 | binds | B2
